Laboratory results from patent publication US20220281990A1 (MERRIMACK PHARMACEUTICALS, published 2022).
Positions count from the first letter of the chain named. Blank lines part the entries; values can stand above or below the binder they belong to.

Columns and labels:
[1] = molecular target: T1, recombinant human TNFR2-hFc protein (human, UniProt P20333 23-257); test: flow cytometry; hTNFR2-Fc binding to scFv displayed on yeast (FIG. 4)
T1 construct: also called hTNFR2-Fc; human TNFR2-Fc; not shown: human Fc
T1 sequence: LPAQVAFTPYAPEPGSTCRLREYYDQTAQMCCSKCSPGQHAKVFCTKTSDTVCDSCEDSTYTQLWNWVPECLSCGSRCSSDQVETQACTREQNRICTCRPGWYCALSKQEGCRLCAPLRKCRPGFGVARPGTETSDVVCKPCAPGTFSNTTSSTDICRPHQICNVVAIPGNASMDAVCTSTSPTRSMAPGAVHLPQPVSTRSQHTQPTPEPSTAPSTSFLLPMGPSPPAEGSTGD

[2] = molecular target: T1, recombinant human TNFR2-hFc protein; test: flow cytometry; hTNFR2-Fc binding to scFv displayed on yeast; one site binding fit (FIG. 6A)
[3] = molecular target: T2, Human TNFR2 expressed on cells (CHO-hTNFR2 cells) (human, UniProt P20333 23-461); test: flow cytometry; soluble scFv inhibiting TNF (1 nM) binding to CHO-hTNFR2 cells (FIGS. 5A-5B)
T2 construct: also called CHO cells overexpressing human TNFR2; human TNFR2 reporter cells (HEK293)
T2 sequence: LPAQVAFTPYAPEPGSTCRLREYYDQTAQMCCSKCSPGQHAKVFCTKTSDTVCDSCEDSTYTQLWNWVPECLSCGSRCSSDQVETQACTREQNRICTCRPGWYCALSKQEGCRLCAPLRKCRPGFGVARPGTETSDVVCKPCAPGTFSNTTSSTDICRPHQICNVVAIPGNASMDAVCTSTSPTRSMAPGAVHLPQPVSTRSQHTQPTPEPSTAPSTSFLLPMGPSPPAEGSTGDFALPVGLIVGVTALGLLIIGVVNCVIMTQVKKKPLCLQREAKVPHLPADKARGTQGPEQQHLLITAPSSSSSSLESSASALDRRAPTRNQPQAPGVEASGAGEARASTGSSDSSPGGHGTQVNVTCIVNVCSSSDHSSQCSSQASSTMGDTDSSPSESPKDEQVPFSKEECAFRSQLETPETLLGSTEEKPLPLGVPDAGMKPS

[4] = molecular target: T1, recombinant human TNFR2-hFc protein; test: flow cytometry; hTNFR2-Fc binding to scFv displayed on yeast; one site binding fit (FIG. 4)
[5] = molecular target: T3, recombinant human TNFR2-His (human, UniProt P20333 23-257); test: flow cytometry; hTNFR2-His binding to scFv displayed on yeast (FIG. 8)
T3 construct: also called hTNFR2-His; TNFR2-His protein; not shown: His tag
T3 sequence: T1 sequence

[6] = molecular target: T2, Human TNFR2 expressed on cells …; test: flow cytometry; soluble scFv inhibiting TNF (1 nM) binding to CHO-hTNFR2 cells (FIG. 7)
[7] = molecular target: T1, recombinant human TNFR2-hFc protein; test: flow cytometry; hTNFR2-Fc binding to scFv displayed on yeast; one site binding fit (FIG. 6B); FIG. 6B
[8] = molecular target: T1, recombinant human TNFR2-hFc protein; test: flow cytometry; TNFR2-Fc binding to scFv displayed on yeast (FIGS. 6A-6C)
[9] = molecular target: T1, recombinant human TNFR2-hFc protein; test: flow cytometry; hTNFR2-Fc binding to scFv displayed on yeast; one site binding fit (FIG. 6C)
[10] = molecular target: T1, recombinant human TNFR2-hFc protein; test: flow cytometry; hTNFR2-Fc binding to scFv displayed on yeast; one site binding fit (FIG. 6B)
[11] = molecular target: T2, Human TNFR2 expressed on cells …; test: flow cytometry; IgG inhibiting TNF (1 nM) binding to CHO-hTNFR2 cells (FIG. 13A); FIG. 13A
[12] = molecular target: T2, Human TNFR2 expressed on cells …; test: flow cytometry; IgG binding to CHO-hTNFR2 cells; four parameter fit (FIG. 10)
[13] = molecular target: T2, Human TNFR2 expressed on cells …; test: flow cytometry; IgG inhibiting TNF (1 nM) binding to CHO-hTNFR2 cells (FIG. 12)
[14] = molecular target: T2, Human TNFR2 expressed on cells …; test: flow cytometry; IgG inhibiting TNF (1 nM) binding to CHO-hTNFR2 cells (FIG. 13B); FIG. 13B
[15] = molecular target: T3, recombinant human TNFR2-His; test: biolayer interferometry (BLI); IgG1 and TNFR2-His protein (FIG. 11)

fold higher affinity (vs parental scFv) [8]: 10 fold
Kd [9]: 0.78 nM
B4: UC2.3.15 (S4-2 1D10-1G9-1H12) scFv (scFv)
scFv: QVQLLESGGGLVQPGGSLRLSCAVSGFTFSTYAMSWIRQAPGKGLEWVSIISDGGDATVYADSVKGRFTISRDNSKNTLYLQMNSLRAEDTAVYYWARDGTSAAAFDSWGQGTLVTVSSANSGGSTSGSGKPGSGEGSSGSARDIQMTQSPSSLSASVGDRVTITCQASQDITNFLNWYQQKPGKAPKLLIYDASTLQTGVPSRFSGSGSGTDFTFTISSLQPEDIATYYCQQSDSYPITFGQGTKVEIKR

fold higher affinity (vs parental scFv) [8]: 10 fold
Kd [9]: 0.65 nM
B5: UC2.3.14 (S4-2 1D10-1G9-1H11) scFv (scFv)
scFv: B4 scFv with C22Y, V24A, G42R, W96C, G100R, N121S

fold higher affinity (vs parental scFv) [8]: 10 fold
Kd [9]: 0.87 nM
B6: UC2.3.13 (S4-2 1D10-1G9-1G11) scFv (scFv)
scFv: B4 scFv with G8V, A57V, W96C, G100R, T116S, V117D, N121S, A142S, T215N

IC50 [14]: 0.088 nM
Kd [15]: 0.344 nM
B9: UC2.3.8-IgG1 (antibody, V domains shown)
VH: QVQLLESGGGLVQPGGSLRLSCAASGFTFSTYAMSWIRQAPGKGLEWVSIISDGGDATVYADSVKGRFTISRDNNRNTLYLQMNSLRAEDTAVYYCARDGTSAAAFDSWGQGTLVTVSS
VL: DIQMTQSPSSLSASVGDRVTITCQASQDITNFLNWYQQKPGKAPKLLIYDASRRRAGVPSRFSGSGSGTDFTFTISSLQPEDIATYYCQQSDSYPITFGQGTKVEIKR
notes: Full-length human IgG1; UC2.3.3 heavy chain combined with UC2.3.7 light chain; also called anti-human TNFR2 IgG UC2.3.8

IC50 [11]: 8.69 nM
Kd [15]: 17.1 nM
B12: UC2.3.7-IgG1 (antibody, V domains shown)
VH: B9 VH with N75S, R76K
VL: B9 VL
notes: Full-length human IgG1; also called anti-human TNFR2 IgG UC2.3.7

The next lines start with the binder.

B1: UC1.1 (S4-2 1B5-1D9) scFv (scFv)
scFv: QVQLLESGGGLVQPGGSLRLSCAASGFSFTSYAMTWVRQAPGKGLEWVSGISGGGAATFYADSVKGRFTISRDNSKNTLYLQMNSLRAEDTAVYYCARQSQYVGGFDYWGQGTLVTVSSASSGGSTSGSGKPGSGEGSSGSARQSVLTQPPSVSGAPGQRVTISCTGSSSNIGAGYGVHWYQQLPGTAPKLLIHGNTNRPSGVPDRFSGFKSGTSASLAITGLQAEDEADYYCQSYDSSLSGWVFGGGTKLTVLG
fold higher affinity (vs parental scFv) [1]: ~5 fold
Kd [2]: 2.87 nM
IC50 [3]: 10.7 nM
Kd [4]: 2.59 nM

B2: UC2.3 (S4-2 1D10-1G9) scFv (scFv)
scFv: B4 scFv with V24A, W96C, N121S
EC50 [5]: 33.9 nM
fold higher affinity (vs parental scFv) [1]: ~5 fold
IC50 [6]: 4.85 nM
IC50 [3]: 6.59 nM
Kd [7]: 8.16 nM
Kd [4]: 8.88 nM

B3: UC2.3.3 scFv (dimer) (scFv)
scFv: B4 scFv with V24A, S75N, K76R, W96C, N121S
notes: also called UC2.3.3 (dimer)
IC50 [6]: 1.72 nM

B7: UC2.3.3 (S4-2 1D10-1G9-1F10) scFv (scFv)
scFv: B4 scFv with V24A, S75N, K76R, W96C, N121S
notes: also called UC2.3.3 (monomer)
fold higher affinity (vs parental scFv) [8]: 10 fold
IC50 [6]: 3.94 nM
Kd [10]: 1.35 nM

B8: UC2.3-IgG1 (antibody, V domains shown)
VH: B9 VH with N75S, R76K
VL: B9 VL with R53T, R54L, R55Q, A56T
notes: Full-length human IgG1; also called anti-human TNFR2 IgG UC2.3
IC50 [11]: 48 nM
EC50 [12]: 3.4 nM
IC50 [13]: 12.4 nM

B10: UC2-IgG1 (antibody, V domains shown)
VH: B9 VH with I37V, V59F, N75S, R76K
VL: B9 VL with R53T, R54L, R55Q, A56T
notes: Full-length human IgG1; also called anti-human TNFR2 IgG UC2
EC50 [12]: 97.9 nM

B11: UC2.3.3-IgG1 (antibody, V domains shown)
VH: B9 VH
VL: B9 VL with R53T, R54L, R55Q, A56T
notes: Full-length human IgG1; also called anti-human TNFR2 IgG UC2.3.3
IC50 [11]: 0.89 nM
IC50 [14]: 0.68 nM
Kd [15]: 0.573 nM
